B1: full-length B. subtilis GlmM (phosphoglucosamine mutase), His-tagged (enzyme, UniProt O34824 1-448, looked up)
chain: MGKYFGTDGVRGVANSELTPELAFKVGRFGGYVLTKDKQRPKVLIGRDTRISGHMLEGALVAGLLSIGAEVMRLGVISTPGVSYLTKAMDAEAGVMISASHNPVQDNGIKFFGGDGFKLSDEQEAEIERLMDEPEDKLPRPVGADLGLVNDYFEGGQKYLQFLKQTADEDFTGIHVALDCANGATSSLATHLFADLDADVSTMGTSPNGLNINDGVGSTHPEALSAFVKEKNADLGLAFDGDGDRLIAVDEKGNIVDGDQIMYICSKHLKSEGRLKDDTVVSTVMSNLGFYKALEKEGIKSVQTAVGDRYVVEAMKKDGYNVGGEQSGHLIFLDYNTTGDGLLSAIMLMNTLKATGKPLSELAAEMQKFPQLLVNVRVTDKYKVEENEKVKAVISEVEKEMNGDGRILVRPSGTEPLVRVMAEAKTKELCDEYVNRIVEVVRSEMGLE
notes: GlmM of B. subtilis strain 168, full-length protein; also called glmM-his; phosphoglucomutase GlmM; source: E. coli BL21(DE3), purified (Ni-NTA, SEC); also in lysate, mixed with the partner's lysate before Ni-NTA and SEC; not shown: His6, C-terminal, kept
B2: B. subtilis CdaA catalytic domain (CdaACD), His-tagged (domain or fragment, UniProt Q45589 97-273, looked up)
chain: FFSRSGTPVEEAQQKTIEAITKAINYMAKRRIGALLTIERDTGMGDYIETGIPLNAKVSSELLINIFIPNTPLHDGAVIMKNNEIAAAACYLPLSESPFISKELGTRHRAAVGISEVTDSLTIIVSEETGGVSVAKNGDLHRELTEEALKEMLEAEFKKNTRDTSSNRWYWRGKKNG
notes: C-terminal catalytic (DAC) domain of the c-di-AMP cyclase CdaA of B. subtilis strain 168, starting from amino acid Phe97; The His tag is thrombin cleavable; For MST the protein was labelled with an amine-reactive dye (Monolith Protein Labeling RED-NHS 2nd Generation kit); also called soluble catalytic domain of the c-di-AMP cyclase CdaA; his-cdaACD; source: E. coli BL21(DE3), purified (Ni-NTA, …)
B3: tag-less B. subtilis CdaACD (domain or fragment, UniProt Q45589 97-273, looked up)
chain: B2 chain
notes: C-terminal catalytic (DAC) domain of the c-di-AMP cyclase CdaA of B. subtilis strain 168, starting from amino acid Phe97; also called tag less CdaACD; source: E. coli BL21(DE3), purified (Ni-NTA, SEC), His tag removed with thrombin, SEC; not shown: His6, N-terminal, cleaved
B4: B. subtilis GlmM_(F369) variant lacking the C-terminal domain 4, His-tagged (domain or fragment, UniProt O34824 1-369, looked up)
chain: MGKYFGTDGVRGVANSELTPELAFKVGRFGGYVLTKDKQRPKVLIGRDTRISGHMLEGALVAGLLSIGAEVMRLGVISTPGVSYLTKAMDAEAGVMISASHNPVQDNGIKFFGGDGFKLSDEQEAEIERLMDEPEDKLPRPVGADLGLVNDYFEGGQKYLQFLKQTADEDFTGIHVALDCANGATSSLATHLFADLDADVSTMGTSPNGLNINDGVGSTHPEALSAFVKEKNADLGLAFDGDGDRLIAVDEKGNIVDGDQIMYICSKHLKSEGRLKDDTVVSTVMSNLGFYKALEKEGIKSVQTAVGDRYVVEAMKKDGYNVGGEQSGHLIFLDYNTTGDGLLSAIMLMNTLKATGKPLSELAAEMQKF
notes: GlmM of B. subtilis strain 168, residues Met1 to Phe369 (domains 1 to 3, lacking the flexible C-terminal domain 4); also called truncated GlmM; glmM_(F369)-his; source: E. coli BL21(DE3), purified (Ni-NTA, SEC); also in lysate, mixed with the partner's lysate before Ni-NTA and SEC; not shown: His6, C-terminal, kept

Experiments:
[1] = molecular target: the molecule itself; assay: SEC-SAXS; purified proteins or purified complexes (CdaACD 5 mg/ml, GlmM 24 mg/ml, CdaACD:GlmM 24 mg/ml, CdaACD:GlmM_(F369) 10 mg/ml) on a Shodex KW403 column in 30 mM Tris pH 7.5, 150 mM NaCl, with continuous SAXS data collection; envelopes fitted with the crystal structures
[2] = molecular target: B1; assay: MST; fluorescently labelled (RED-NHS) CdaACD at 25 nM final, unlabelled GlmM 0.78 uM to 800 uM final; 10 mM HEPES pH 7.5, 150 mM NaCl, 0.05% Tween-20; Monolith NT.115, LED power 95%, MST power 80%; five runs; settings: both partners purified
[3] = molecular target: the molecule itself; assay: crystal structure; purified CdaACD:GlmM_(F369) complex at 10 mg/ml, two conditions (complex 1, 3.6 A; complex 2, 4.2 A); three complexes in the asymmetric unit
[4] = molecular target: the molecule itself; assay: crystal structure; tag-less CdaACD at 4 mg/ml; 0.1 M sodium cacodylate pH 6.5, 0.1 M ammonium sulfate, 0.3 M sodium formate, 6% PEG 8000, 3% gamma-PGA; dimer in the asymmetric unit; 2.8 A

B1
stoichiometry N [1]: 2

B2
Kd [2]: 14.4 ± 0.962 µM | stoichiometry N [3]: 2

B3
stoichiometry N [4]: 2

B4
stoichiometry N [3]: 2
